From patent publication US20260356970 (published 2026) come the findings set out here.

This experiment deals with T1, EMR2 (human, UniProt Q9UHX3).
T1 chain: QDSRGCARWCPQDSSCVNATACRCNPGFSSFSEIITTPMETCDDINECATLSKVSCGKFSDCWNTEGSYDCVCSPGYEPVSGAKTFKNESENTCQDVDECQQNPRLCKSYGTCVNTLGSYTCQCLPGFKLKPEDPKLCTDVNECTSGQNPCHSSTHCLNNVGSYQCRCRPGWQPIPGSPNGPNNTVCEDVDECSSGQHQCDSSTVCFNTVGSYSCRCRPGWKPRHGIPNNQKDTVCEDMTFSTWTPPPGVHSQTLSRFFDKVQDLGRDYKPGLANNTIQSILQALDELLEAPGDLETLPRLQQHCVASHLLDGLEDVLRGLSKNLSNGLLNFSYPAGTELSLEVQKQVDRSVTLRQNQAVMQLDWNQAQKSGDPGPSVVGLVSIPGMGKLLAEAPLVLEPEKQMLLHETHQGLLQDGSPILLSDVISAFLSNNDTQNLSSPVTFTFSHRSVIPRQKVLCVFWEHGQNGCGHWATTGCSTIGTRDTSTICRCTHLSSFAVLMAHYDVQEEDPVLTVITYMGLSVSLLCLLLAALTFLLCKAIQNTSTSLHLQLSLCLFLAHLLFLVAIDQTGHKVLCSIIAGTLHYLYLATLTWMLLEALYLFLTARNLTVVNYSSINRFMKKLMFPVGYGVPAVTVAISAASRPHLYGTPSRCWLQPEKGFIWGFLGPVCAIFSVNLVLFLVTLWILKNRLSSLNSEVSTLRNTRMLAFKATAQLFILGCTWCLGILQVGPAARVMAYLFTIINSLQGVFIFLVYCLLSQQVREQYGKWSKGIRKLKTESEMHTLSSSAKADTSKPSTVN
As to the kind of experiment: ELISA.

B1: EMR2-3-VH (designed binder)
chain: QVQLVQSGGGLVQPGGSLRLSCAASDFSFDSYEMSWVRQAPGKGLEWVSSISASGGRTFYADSVKGRFTISRDNSKNTLYLQMNTLRAEDTALYYCARHPGIMGQGTLVTVSS
For B1, the EC50 – broadly, the concentration that produces a half-maximal response – was less than 1 nM.

B2: EMR2-1-scFv (antibody, V domains shown)
VH: QVQLVQSGAEVKKPGASVKVSCKASGYTFTSYGISWVRQAPGQGLEWMGWISAYNGNTNYAQKLQGRVTMTTDTSTSTAYMELRSLRSDDTAVYYCARGYAFDIWGQGTMVTVSS
VL: SYELTQPLSVSVALGQTARITCGGNNIGSKNVHWYQQKPGQAPVLVIYRDSNRPSGIPERFSGSNSGNTATLTINRAQAGDEADYYCQVWDSSTVVFGGGTELTVL
In turn, B2 gave an EC50 of less than 1 nM.

B3: EMR2-2-scFv (antibody, V domains shown)
VH: QVQPVESGGGLVQPGGSLRLSCAASGFTFSSYEMNWVRQAPGKGLEWVSAISGGGGSTYYADSVKGRFTISRDNSKNTLYLQMNSLRAEDTAVYYCAKSGRGWAAAGRWGQGTLVTVSS
VL: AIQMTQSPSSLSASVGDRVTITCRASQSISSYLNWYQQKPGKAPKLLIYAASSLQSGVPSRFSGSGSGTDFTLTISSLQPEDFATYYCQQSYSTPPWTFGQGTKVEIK
Molecule B3 gave an EC50 of less than 1 nM.
